Experimental data reported in patent US20180155451A1 (published 2018).

T1: FcγRIIa R (human, UniProt P12318 34-217)
T1 construct: extracellular domain; also called FcgRIIa R type; 2aR
T1 sequence (looked up): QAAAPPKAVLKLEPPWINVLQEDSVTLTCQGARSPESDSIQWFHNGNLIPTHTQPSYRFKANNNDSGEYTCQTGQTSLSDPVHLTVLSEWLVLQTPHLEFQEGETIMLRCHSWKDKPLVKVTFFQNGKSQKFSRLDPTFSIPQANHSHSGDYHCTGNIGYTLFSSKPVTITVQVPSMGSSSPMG

T2: FcγRIIb (human, UniProt P31994 43-217)
T2 construct: extracellular domain; also called FcgRIIb; 2b
T2 sequence (looked up): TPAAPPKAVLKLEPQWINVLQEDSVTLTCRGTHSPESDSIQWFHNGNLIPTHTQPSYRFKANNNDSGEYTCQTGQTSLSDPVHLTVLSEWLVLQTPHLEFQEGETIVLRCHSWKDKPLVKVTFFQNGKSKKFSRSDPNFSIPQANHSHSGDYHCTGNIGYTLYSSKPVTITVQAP


Tests used:
FcγRIIa R [1] = biological target: T1, FcγRIIa R; assay: SPR (Biacore), antibody captured, FcγR as analyte; relative binding
FcγRIIb = biological target: T2, FcγRIIb; assay: as above
FcγRIIa R [2] = biological target: T1, FcγRIIa R; assay: SPR; He/Con_2aR divided by He/Con_2b (FcγRIIb as reference)
Protocol: The heterodimerized antibodies He Abs in which one of the H chains was introduced with an alteration were assayed for their binding activities to each activating FcγR and inhibitory FcγR according to the method described in Example 4. […] The activating FcγRs in FIGS. 26, 27, 28, and 29 are FcγRIa, FcγRIIa (R), FcγRIIa (H), and FcγRIIIa, respectively.
Analysis of interaction between objective antibody and the FcγR was carried out using Biacore T100 (GE Healthcare). HBS-EP+ (GE Healthcare) was used as the running buffer, and the measurement temperature was set to 25° C. Chips produced by immobilizing the antigen peptide by the amine coupling method to a Series S Sencor Chip CM5 (GE Healthcare), or alternatively, chips produced by allowing preliminarily biotinylated antigen peptides to interact with and immobilize onto a Series S Sensor Chip SA (certified) (GE Healthcare) were used. Antibodies of interest were captured onto an antigen peptide-immobilized chip, and allowed to interact to each FcγR diluted with running buffer. To regenerate and repeatedly use the chip, the antibodies captured on the chip were washed off by reacting 10 mM glycine-HCl, pH 1.5.

Binder | He/Con_2aR (IIaR binding) (FcγRIIa R [1]) | He/Con_2b (IIb binding) (FcγRIIb) | IIaR/IIb (He_2aR/2b) (FcγRIIa R [2])
GpH7-A5/GpH7-B3 variant P271_15Y/GpL16-k0 (antibody, human IgG1, kappa, heterodimerized antibody, mutation in the GpH7-B3 chain only; also called He Ab) heavy 1: not shown heavy 2: not shown light: DIVMTQSPLSLPVTPGEPASISCQASESLVHSNRNTYLHWYLQKPGQSPQLLIYKVSNRFSGVPDRFSGSGSGTDFTLKISRVEAEDVGVYYCSQNTHVPPTFGQGTKVEIERTVAAPSVFIFPPSDEQLKSGTASVVCLLNNFYPREAKVQWKVDNALQSGNSQESVTEQDSKDSTYSLSSTLTLSKADYEKHKVYACEVTHQGLSSPVTKSFNRGEC | 70.7 % of GpH7-A5/GpH7-B3/GpL16-k0 (=100) | 52.3 % of GpH7-A5/GpH7-B3/GpL16-k0 (=100) | 1.35 ratio
GpH7-A5/GpH7-B3 variant Q295_12R/GpL16-k0 (antibody, human IgG1, kappa, heterodimerized antibody, mutation in the GpH7-B3 chain only; also called He Ab) heavy 1: not shown heavy 2: not shown light: DIVMTQSPLSLPVTPGEPASISCQASESLVHSNRNTYLHWYLQKPGQSPQLLIYKVSNRFSGVPDRFSGSGSGTDFTLKISRVEAEDVGVYYCSQNTHVPPTFGQGTKVEIERTVAAPSVFIFPPSDEQLKSGTASVVCLLNNFYPREAKVQWKVDNALQSGNSQESVTEQDSKDSTYSLSSTLTLSKADYEKHKVYACEVTHQGLSSPVTKSFNRGEC | 83 % of GpH7-A5/GpH7-B3/GpL16-k0 (=100) | 65.2 % of GpH7-A5/GpH7-B3/GpL16-k0 (=100) | 1.27 ratio
GpH7-A5/GpH7-B3 variant P271_04F/GpL16-k0 (antibody, human IgG1, kappa, heterodimerized antibody, mutation in the GpH7-B3 chain only; also called He Ab) heavy 1: not shown heavy 2: not shown light: DIVMTQSPLSLPVTPGEPASISCQASESLVHSNRNTYLHWYLQKPGQSPQLLIYKVSNRFSGVPDRFSGSGSGTDFTLKISRVEAEDVGVYYCSQNTHVPPTFGQGTKVEIERTVAAPSVFIFPPSDEQLKSGTASVVCLLNNFYPREAKVQWKVDNALQSGNSQESVTEQDSKDSTYSLSSTLTLSKADYEKHKVYACEVTHQGLSSPVTKSFNRGEC | 75.9 % of GpH7-A5/GpH7-B3/GpL16-k0 (=100) | 59.5 % of GpH7-A5/GpH7-B3/GpL16-k0 (=100) | 1.28 ratio
GpH7-A5/GpH7-B3 variant Q295_13S/GpL16-k0 (antibody, human IgG1, kappa, heterodimerized antibody, mutation in the GpH7-B3 chain only; also called He Ab) heavy 1: not shown heavy 2: not shown light: DIVMTQSPLSLPVTPGEPASISCQASESLVHSNRNTYLHWYLQKPGQSPQLLIYKVSNRFSGVPDRFSGSGSGTDFTLKISRVEAEDVGVYYCSQNTHVPPTFGQGTKVEIERTVAAPSVFIFPPSDEQLKSGTASVVCLLNNFYPREAKVQWKVDNALQSGNSQESVTEQDSKDSTYSLSSTLTLSKADYEKHKVYACEVTHQGLSSPVTKSFNRGEC | 73.7 % of GpH7-A5/GpH7-B3/GpL16-k0 (=100) | 56.9 % of GpH7-A5/GpH7-B3/GpL16-k0 (=100) | 1.3 ratio
GpH7-A5/GpH7-B3 variant Q295_05P/GpL16-k0 (antibody, human IgG1, kappa, heterodimerized antibody, mutation in the GpH7-B3 chain only; also called He Ab) heavy 1: not shown heavy 2: not shown light: DIVMTQSPLSLPVTPGEPASISCQASESLVHSNRNTYLHWYLQKPGQSPQLLIYKVSNRFSGVPDRFSGSGSGTDFTLKISRVEAEDVGVYYCSQNTHVPPTFGQGTKVEIERTVAAPSVFIFPPSDEQLKSGTASVVCLLNNFYPREAKVQWKVDNALQSGNSQESVTEQDSKDSTYSLSSTLTLSKADYEKHKVYACEVTHQGLSSPVTKSFNRGEC | 87.4 % of GpH7-A5/GpH7-B3/GpL16-k0 (=100) | 67.5 % of GpH7-A5/GpH7-B3/GpL16-k0 (=100) | 1.3 ratio

The next lines start with the values.

He/Con_2aR (IIaR binding) (FcγRIIa R [1]) | He/Con_2b (IIb binding) (FcγRIIb) | IIaR/IIb (He_2aR/2b) (FcγRIIa R [2]) | Binder
82.4 % of GpH7-A5/GpH7-B3/GpL16-k0 (=100) | 64.9 % of GpH7-A5/GpH7-B3/GpL16-k0 (=100) | 1.27 ratio | GpH7-A5/GpH7-B3 variant Q295_18N/GpL16-k0 (antibody, human IgG1, kappa, heterodimerized antibody, mutation in the GpH7-B3 chain only; also called He Ab) heavy 1: not shown heavy 2: not shown light: DIVMTQSPLSLPVTPGEPASISCQASESLVHSNRNTYLHWYLQKPGQSPQLLIYKVSNRFSGVPDRFSGSGSGTDFTLKISRVEAEDVGVYYCSQNTHVPPTFGQGTKVEIERTVAAPSVFIFPPSDEQLKSGTASVVCLLNNFYPREAKVQWKVDNALQSGNSQESVTEQDSKDSTYSLSSTLTLSKADYEKHKVYACEVTHQGLSSPVTKSFNRGEC
81.3 % of GpH7-A5/GpH7-B3/GpL16-k0 (=100) | 62.7 % of GpH7-A5/GpH7-B3/GpL16-k0 (=100) | 1.3 ratio | GpH7-A5/GpH7-B3 variant Q295_16H/GpL16-k0 (antibody, human IgG1, kappa, heterodimerized antibody, mutation in the GpH7-B3 chain only; also called He Ab) heavy 1: not shown heavy 2: not shown light: DIVMTQSPLSLPVTPGEPASISCQASESLVHSNRNTYLHWYLQKPGQSPQLLIYKVSNRFSGVPDRFSGSGSGTDFTLKISRVEAEDVGVYYCSQNTHVPPTFGQGTKVEIERTVAAPSVFIFPPSDEQLKSGTASVVCLLNNFYPREAKVQWKVDNALQSGNSQESVTEQDSKDSTYSLSSTLTLSKADYEKHKVYACEVTHQGLSSPVTKSFNRGEC
82.8 % of GpH7-A5/GpH7-B3/GpL16-k0 (=100) | 65.4 % of GpH7-A5/GpH7-B3/GpL16-k0 (=100) | 1.27 ratio | GpH7-A5/GpH7-B3 variant Q295_15Y/GpL16-k0 (antibody, human IgG1, kappa, heterodimerized antibody, mutation in the GpH7-B3 chain only; also called He Ab) heavy 1: not shown heavy 2: not shown light: DIVMTQSPLSLPVTPGEPASISCQASESLVHSNRNTYLHWYLQKPGQSPQLLIYKVSNRFSGVPDRFSGSGSGTDFTLKISRVEAEDVGVYYCSQNTHVPPTFGQGTKVEIERTVAAPSVFIFPPSDEQLKSGTASVVCLLNNFYPREAKVQWKVDNALQSGNSQESVTEQDSKDSTYSLSSTLTLSKADYEKHKVYACEVTHQGLSSPVTKSFNRGEC
